{"source": "paper PMC9605926", "about": "“Safety of [^177Lu]Lu-NeoB treatment: a preclinical study characterizing absorbed dose and acute, early, and late organ toxicity” (European Journal of Nuclear Medicine and Molecular Imaging, 2022)", "assay": "Toxicity study, body weight (same groups as A3)", "format": "in vivo, mouse", "procedure": "Throughout the study, the animals were observed daily to check for physical signs of toxicity and signs of discomfort, and animals were weighed 2–3 times per week. Furthermore, at week -1, 5, 11, 19, 30, and 43, blood samples were collected by submandibular puncture from all animals that were in the study at that time point. All blood samples were analyzed for hematological parameters (hematocrit; hemoglobin; red blood cell count; white blood cell count; hemoglobin; mean cell hemoglobin concentration; mean cell volume; platelet count) on the scilVet abc + counter (Covetrus).\nStatistical analysis was performed using GraphPad PRISM software (version 5). Significance levels were set at 5%. A simple binary logistic regression analysis was performed to determine a dose–effect relation between the absorbed dose and the histopathological findings in the kidneys using the log-likelihood ratio test as a significance indicator. The weight gain over time of control group 2 and treatment groups 1, 2, and 3 was compared to control group 1 by performing a two-way multiple comparison analysis of variance (ANOVA) with a Bonferroni correction. Significant outliers in the blood values set were detected with the Grubbs’ test and excluded from the data set. At a given time point, the measurements of all study groups were compared by performing a one-way ANOVA and in case of significance a Tukey test to correct for multiple comparisons. All data are represented as mean ± standard deviation (SD).", "data": [{"smiles": "CC(C)CC(CC(C)C)NC(=O)[C@H](Cc1cnc[nH]1)NC(=O)CNC(=O)[C@@H](NC(=O)[C@H](C)NC(=O)[C@H](Cc1c[nH]c2ccccc12)NC(=O)[C@H](CCC(N)=O)NC(=O)[C@@H](Cc1ccccc1)NC(=O)COCC(=O)Nc1ccc(CNC(=O)CN2CCN(CC(=O)O)CCN(CC(=O)O)CCN(CC(=O)O)CC2)cc1)C(C)C", "note": "[[^177Lu]Lu-NeoB, metal not drawn]", "values": [{"measurement": "Weight gain versus control group 1", "setting": "female treatment group 2, by the end of the study", "value": "significantly higher weight gain"}, {"measurement": "Weight gain versus control groups", "setting": "male treatment group 2, first half of the study", "value": "significantly less pronounced weight gain"}, {"measurement": "Weight gain versus control groups", "setting": "male treatment group 3, first half of the study", "value": "significantly less pronounced weight gain"}]}]}
